Measured values as given in US20110124572A1, “SYNDECAN-4 IS A REGULATOR OF RAC1-GTP” (priority 2008, published 2011).
Where “and” joins values, the source holds several entries; their conditions need not be identical. Equal values may be shown once.

Tests used:
[1] = test system: MCF-7 cells; experiment: Cell migration assay (time-lapse) on fibronectin; format: cell-based, human; conditions: MCF-7 line expressing the syndecan-4 variant, fibronectin
Description: (§1) The MCF-7 breast adenocarcinoma cells were obtained from ATCC, cultured in DMEM:F12 (Cambrex, Walkersville, Md., USA) supplemented with 10% fetal bovine serum (FBS) (Gibco, Bethesda, Md., USA), otherwise stated. The stably transfected cell lines were propagated in DMEM:F12 medium supplemented with 10% FBS and 200 μg/ml G418 (Cambrex, Walkersville, Md., USA). The cell lines were seeded onto glass coverslips or plastic dishes coated for 2 h with 10 μg/ml fibronectin (Sigma-Aldrich, St. Louis, Mo., USA). Scratch-wound assays were performed on stable transfected Syndecan-4 wild, Ser179Ala and Ser179Glu cells at 80% confluency. The cultures were scratched with a sterile P10 pipette tip 3-4 times in parallel lines. Images were taken 12, 24, 36 and 48 h following wounding.
In the cell migration assay 60% confluent MCF7 cells or the stably transfected lines were stimulated by 1 μM phorbol-12-myristate-13-acetate (PMA; from Sigma-Aldrich St. Louis, Mo., USA), otherwise stated. The images were taken using 10×, 20×0.3 objective at 3-min intervals for 2 h using inverted microscope (Leica) and organized into time-lapse movies in Adobe ImageReady® v. 8.
Results of the previous scratch-wound assay gave a hint that the Ser179Glu cells gained a migratory phenotype. […]

[2] = test system: Rac1; experiment: Rac1 GTPase pulldown assay (Rac1-GTP level); format: cell-based, human; conditions: for relative Rac1-GTP level: relative to non-treated wt-syndecan-4; for reduction of activated Rac1 (GTP-Rac1) level: Gö6976 treatment
Description: (§2) Rac1 activity was characterised by applying RAC-activation kit purchased from Millipore (Upstate) and it was used according to the manufacturer's prescription. Briefly, p21-binding domain of PAK-1 was fused to agarose beads, which specifically binds to and precipitates Rac-GTP and Cdc42-GTP from cell lysates. Cells were harvested at 70% confluency of 25 ml flasks. The wild type Syndecan-4, Ser179Ala and Ser179Glu cells were treated for 60 minutes with 1 μM PMA (Sigma-Aldrich), or 500 nM rottlerin (Sigma-Aldrich), or 10 nM Gö6976 (Biosource, Camarillo, Calif., USA). The active Rac1 was detected by Western blotting using mouse anti-Rac1 antibody (Upstate). To test whether GST-Pak1-Rac/Cdc42-binding domain could pull syndecan-4 down, the blot was probed with rabbit polyclonal anti-syndecan-4 or mouse monoclonal anti-GFP antibody.

[3] = test system: GTP-Rac/Cdc42-PAK complex; experiment: Pull-down of syndecan-4 by Rac1/CDC42-binding domain of PAK; parameters: species or system human; conditions: PAK-PKB pull-down, no γ-S GTP
Description: as §2
We tested whether the protein complex pulled down with the Rac1/CDC 42-binding domain of PAK (PAK-PKB) used in the Rac1 assay contained syndecan-4. Parallel filter of the Rac1 assay was probed with anti-syndecan-4 or anti-GFP antisera. The syndecan-4-GFP monomers migrating with 55 kDa relative electrophoretic mobility gave strong signals (FIG. 6). The amount of pulled-down syndecan-4 was in accordance with Rac1 level detected in the different syndecan-4 constructs (FIG. 6). […] When γ-S GTP was applied to the cell lysates to equalize the pulled-down Rac1-GTP level there was no difference in the amount of pulled-down syndecan-4 variants (FIG. 6). So, the affinity of the different syndecan-4 mutants is the same to the GTP-Rac/Cdc42-PAK complex. […]
We tested syndecan-4 whether it was pulled down by the Rac1/CDC 42-binding domain of PAK (PAK-PKB) used in the Rac1 assay. The syndecan-4-GFP monomers were detected as a 55 kDa relative electrophoretic mobility band probed with anti-syndecan-4 or anti-GFP antisera. […] The amount of pulled-down syndecan-4 was in accordance with Rac1 level detected in the different syndecan-4 constructs (FIG. 6). […]

[4] = test system: MCF-7 cells; experiment: Scratch-wound assay; format: cell-based, human; conditions: for time to closure of the scratch gap: fibronectin, scratched at 80% confluence
Description: as §1
The wt-syndecan-4, Ser179Ala, and Ser179Glu lines were tested how they close the scratched wound on fibronectin substratum. At 80% confluence the cultures were scratch-wounded and healing was monitored. Still images were captured at the indicated time points (FIG. 1). In monolayers of the wt-syndecan-4 and the Ser179Ala lines the wounds healed from the edges, i.e. progenies of cell division narrowed the scratch but kept tight contact with the cell layer. […] The gaps closed in every case almost at the same time, in 42 hour. There was no difference in the growth rate of the different lines measured by SRB assay (data not shown).

[5] = molecular target: T1, Tiam-1 (Homo sapiens, UniProt Q13009); experiment: Immunoprecipitation with anti-Tiam-1; format: binding; conditions: for Rac1 in the Tiam-1 precipitate: lysate of cells expressing the variant
T1 construct: we tested whether syndecan-4 can be co-immunoprecipitated by anti-Tiam-1; endogenous in cells; host or cells: MCF-7 lines expressing wt, Ser179Ala or Ser179Glu syndecan-4-GFP (RIPA lysates, GDP- or γ-S-GTP-saturated)
Description: In brief, 70% confluent cultures of 25 mL flask were detached, pelleted and following 2 times washing with PBS. The pellet were lysed in RIPA buffer then centrifuged and the supernatant was pre-cleared by addition of 5 μL of protein A/G-sepharose beads slurry (Pierce) for 2 hours, then the supernatant was incubated with the antibody of interest for 24 hours. 10 μL of protein A/G slurry was added for 2 hours, collected by pulse centrifugation, washed 3 times with lysis buffer, resuspended in 2×SDS loading buffer subjected to SDS-PAGE, followed by immunoblotting with the appropriate antibodies.
Since Tiam-1 is a Rac1-GEF (GTP exchange factor) and it could be pulled down by PAK-PKB (Mendoza-Naranjo et al., 2006) we tested whether syndecan-4 can be co-immunoprecipitated by anti-Tiam-1. The syndecan-4 chimeras were detected by anti-syndecan-4 and anti-GFP antisera at 55 kDa and 90 kDa length, which were correspondent to the monomer and dimmer forms, respectively. Because the co-sedimentation of syndecan-4 by PAK-PKB was GDP-GTP dependent we tested if the GDP or GTP had effect for the amount of the anti-Tiam-1-co-immunoprecipitated syndecan-4 forms.
PDZ domain of Tiam-1 was reported to bind peptides containing amino acid sequence of FYA (Songyang et al., 1997) that is part of the cytoplasmic segment of syndecan-4. Therefore syndecan-4 seemed a good candidate to interact with Tiam-1. In the immunoprecipitate of Tiam-1 syndecan-4 variants were detected by anti-syndecan-4 or anti-GFP antisera at 55 kDa length, which was correspondent to the monomer forms. There was no significant difference in the binding of Tiam-1 and syndecan-4 variants in the GDP or γ-S GTP saturated cases.
Considering that phospho-syndecan-4 down-regulates the Rac1 activity consequently Rac1 was also tested in the Tiam-1 precipitate to study the nature of inhibition. If the Rac1 activity were regulated by direct interaction of syndecan-4 we might expect a trapped intermedier as it was found in the case of Brefeldin A (Renault et al., 2003).

T1 sequence (Q13009 whole entry): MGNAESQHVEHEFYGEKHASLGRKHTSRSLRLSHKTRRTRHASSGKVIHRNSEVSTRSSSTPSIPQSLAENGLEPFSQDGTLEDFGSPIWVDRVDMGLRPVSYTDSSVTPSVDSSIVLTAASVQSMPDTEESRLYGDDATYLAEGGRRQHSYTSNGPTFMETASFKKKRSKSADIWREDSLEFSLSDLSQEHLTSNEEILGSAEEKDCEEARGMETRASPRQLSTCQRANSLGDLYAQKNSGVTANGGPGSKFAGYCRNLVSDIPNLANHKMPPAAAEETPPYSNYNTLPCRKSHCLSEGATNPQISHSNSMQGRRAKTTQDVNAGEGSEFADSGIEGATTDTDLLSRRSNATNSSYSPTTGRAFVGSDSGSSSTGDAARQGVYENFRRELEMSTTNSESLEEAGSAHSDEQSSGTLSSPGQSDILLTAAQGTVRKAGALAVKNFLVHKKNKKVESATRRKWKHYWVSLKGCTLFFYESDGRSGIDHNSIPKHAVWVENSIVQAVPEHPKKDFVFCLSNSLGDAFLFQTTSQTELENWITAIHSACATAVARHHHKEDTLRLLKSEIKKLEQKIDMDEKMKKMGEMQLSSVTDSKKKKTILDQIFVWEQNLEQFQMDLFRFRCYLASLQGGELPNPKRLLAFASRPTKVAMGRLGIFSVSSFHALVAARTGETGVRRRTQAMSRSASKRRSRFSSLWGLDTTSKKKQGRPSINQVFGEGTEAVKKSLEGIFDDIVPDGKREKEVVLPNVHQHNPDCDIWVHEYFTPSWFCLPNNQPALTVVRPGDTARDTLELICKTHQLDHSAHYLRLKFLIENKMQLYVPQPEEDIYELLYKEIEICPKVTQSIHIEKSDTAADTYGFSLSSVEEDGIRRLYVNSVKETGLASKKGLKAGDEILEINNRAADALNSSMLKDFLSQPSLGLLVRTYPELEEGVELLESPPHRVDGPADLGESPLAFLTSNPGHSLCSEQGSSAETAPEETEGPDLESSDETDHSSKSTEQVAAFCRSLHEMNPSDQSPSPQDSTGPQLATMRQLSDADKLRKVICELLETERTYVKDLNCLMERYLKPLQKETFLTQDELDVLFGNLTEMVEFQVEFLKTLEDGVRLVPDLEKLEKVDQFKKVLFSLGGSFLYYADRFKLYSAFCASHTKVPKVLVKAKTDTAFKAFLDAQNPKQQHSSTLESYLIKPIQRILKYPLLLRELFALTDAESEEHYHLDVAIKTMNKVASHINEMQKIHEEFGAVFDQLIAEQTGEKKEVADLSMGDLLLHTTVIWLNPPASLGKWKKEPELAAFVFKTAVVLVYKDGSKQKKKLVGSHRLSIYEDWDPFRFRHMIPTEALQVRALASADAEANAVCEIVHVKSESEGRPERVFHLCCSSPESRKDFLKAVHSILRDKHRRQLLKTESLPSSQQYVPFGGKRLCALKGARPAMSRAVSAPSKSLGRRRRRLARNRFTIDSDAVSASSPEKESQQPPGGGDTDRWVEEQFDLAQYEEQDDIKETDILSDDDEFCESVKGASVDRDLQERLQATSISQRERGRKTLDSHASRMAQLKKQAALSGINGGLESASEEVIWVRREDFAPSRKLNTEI

relative Rac1-GTP level ([2]; 10 nM Gö6976 60 min)	relative Rac1-GTP level ([2]; 1 μM PMA 60 min)	reduction of activated Rac1 (GTP-Rac1) level [2]	relative Rac1-GTP level ([2]; nt (non-treated))	amount of pulled-down syndecan-4, less than from the Ser179Ala line [3]	syndecan-4 form co-immunoprecipitated by anti-Tiam-1 ([5]; cell lysate saturated by GDP)	Rac1 in the Tiam-1 precipitate [5]	decrease of the Rac1-GTP level ([2]; expression of the variant, untreated)	amount of pulled-down syndecan-4 [3]	syndecan-4 form co-immunoprecipitated by anti-Tiam-1 ([5]; γ-S GTP saturated lysate)	amount of pulled-down syndecan-4, more than the wt-syndecan-4 [3]	Molecule	migration ([1]; 1 μM PMA)	time to closure of the scratch gap [4]	migration ([1]; nt (non-treated))	cell motility in the scratched area ([4]; by 12 hours following wounding)
0.25 ± 0.03	0.25 and 0.25 ± 0.05	4.2±0.4 fold	1	approximately 20%	dominant	observed					wt-syndecan-4: human syndecan-4 with GFP inserted at position 131, stably expressed in MCF-7 cells (protein, left off: large carriers, human syndecan-4 with GFP inserted at position 131, stably expressed in MCF-7 cells) ESIRETEVIDPQDLLEGRYFSGALPDDEDVVGPGQESDDFELSGSGDLDDLEDSMIGPEVVHPLVPLDNHIPERAGSGSQVPTEPKKLEENEVIPKRISPVEESEDVSNKVSMSSTVQGSNIFERTEVLAALIVGGIVGILFAVFLILLLMYRMKKKDEGSYDLGKKPIYKKAPTNEFYA	0.3±0.1 μm/min and 0.3 μm/min	42 h		
0.06 ± 0.02	0.9±0.2 and 0.95 ± 0.06	16±2 fold	0.6±0.1				1.5 fold	hardly detectable	detected abundantly		Ser179Glu: phosphomimetic Ser179 to Glu mutant of human syndecan-4-GFP, expressed in MCF-7 cells (protein, UniProt P31431 19-198, looked up, variant S179E, GFP inserted at position 131, phosphomimetic Ser179 to Glu mutant of human syndecan-4-GFP, expressed in MCF-7 cells) Syndecan-4: ESIRETEVIDPQDLLEGRYFSGALPDDEDVVGPGQESDDFELSGSGDLDDLEDSMIGPEVVHPLVPLDNHIPERAGSGSQVPTEPKKLEENEVIPKRISPVEESEDVSNKVSMSSTVQGSNIFERTEVLAALIVGGIVGILFAVFLILLLMYRMKKKDEGEYDLGKKPIYKKAPTNEFYA		42 h	0.4±0.1 μm/min	enhanced cell motility
1±0.1 and 1 ± 0.01	0.46 ± 0.05		1.9±0.15		dominant	observed				approximately 20%	Ser179Ala: phosphodefective Ser179 to Ala mutant of human syndecan-4-GFP, expressed in MCF-7 cells (protein, UniProt P31431 19-198, looked up, variant S179A, GFP inserted at position 131, phosphodefective Ser179 to Ala mutant of human syndecan-4-GFP, expressed in MCF-7 cells) Syndecan-4: ESIRETEVIDPQDLLEGRYFSGALPDDEDVVGPGQESDDFELSGSGDLDDLEDSMIGPEVVHPLVPLDNHIPERAGSGSQVPTEPKKLEENEVIPKRISPVEESEDVSNKVSMSSTVQGSNIFERTEVLAALIVGGIVGILFAVFLILLLMYRMKKKDEGAYDLGKKPIYKKAPTNEFYA		42 h		
